Source: paper PMC4010391, “Mammalian TBX1 Preferentially Binds and Regulates Downstream Targets Via a Tandem T-site Repeat”

Molecular target: T1, GST-TBX1 T-box (Mus musculus, UniProt P70323 90-303)
T1 sequence: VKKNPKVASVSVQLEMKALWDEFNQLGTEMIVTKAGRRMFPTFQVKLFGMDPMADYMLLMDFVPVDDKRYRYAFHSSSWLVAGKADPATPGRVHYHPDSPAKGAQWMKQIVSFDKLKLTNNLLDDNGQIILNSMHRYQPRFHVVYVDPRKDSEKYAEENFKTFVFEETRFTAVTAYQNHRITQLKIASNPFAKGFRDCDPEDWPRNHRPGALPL
Assay: EMSA; 6 h exposure; EMSA, 12.5 ul, GST-TBX1 5-25 ug, HEPES/MgCl2/KCl/DTT/EDTA/glycerol buffer (stock concentrations only, pH not given), 1 ug/ul poly(dI-dC), Ficoll, room temperature, 10 min + 10 min, 5% acrylamide gel
Settings: protein: recombinant; tags: N-terminal GST (pGEX4t3); chain copies: 2; label: 5'-32P

B1: Brachyury palindrome probe (Fig S1) (dsDNA)
DNA 1: CTAGATTTCACACCTAGGTGTGAAATCTAG
DNA 2: B1 DNA 1
binding result: binds
